Source: publication doi:10.1101/2024.06.21.600001

Molecular target: EBOV GP ectodomain, mucin-like domain deleted (EBOV GP[change] ectodomain), Mayinga, residues 33-651, double Strep-tag (Zaire ebolavirus (EBOV), Mayinga) (UniProt Q05320)
Assay: cryo-EM structure

EBOV GP ectodomain, mucin-like domain deleted (EBOV GP[change] ectodomain), Mayinga, residues 33-651, double Strep-tag (from UniProt Q05320 33-651) (domain or fragment)
stoichiometry N: 3
